Data from paper doi:10.1101/2025.11.28.691101, “Interaction and co-phase separation of SARS-CoV-2 nucleocapsid protein and human hnRNPA1 and its implications for viral life cycle” (bioRxiv, 2025).

Key:
[1] = biological target: T1, SARS-CoV-2 nucleocapsid (N) protein, full-length, N-terminally 6xHis-tagged (SARS-CoV-2, UniProt P0DTC9 1-419); test: pull-down; conditions: both partners purified
T1 construct: SARS-CoV-2 nucleocapsid (N) protein, full-length, residues 1 to 419 (419 amino acids); also called 6XHis-N protein; FL N protein; not shown: His6, N-terminal, kept

[2] = biological target: T1, SARS-CoV-2 nucleocapsid (N) protein, …; test: MST; RED-NHS-labelled hnRNPA1 (5 nM) titrated with N protein, NTD, CTD or LKR+CTD; 16 two-fold dilutions from 100 μM; Monolith NT.115; single-site binding model; triplicates; conditions: both partners purified

B1: N-terminally GST-tagged human hnRNPA1 (natural protein, UniProt P09651-2 1-320, looked up)
chain: MSKSESPKEPEQLRKLFIGGLSFETTDESLRSHFEQWGTLTDCVVMRDPNTKRSRGFGFVTYATVEEVDAAMNARPHKVDGRVVEPKRAVSREDSQRPGAHLTVKKIFVGGIKEDTEEHHLRDYFEQYGKIEVIEIMTDRGSGKKRGFAFVTFDDHDSVDKIVIQKYHTVNGHNCEVRKALSKQEMASASSSQRGRSGSGNFGGGRGGGFGGNDNFGRGGNFSGRGGFGGSRGGGGYGGSGDGYNGFGNDGSNFGGGGSYNDFGNYNNQSSNFGPMKGGNFGGRSSGPYGGGGQYFAKPRNQGGYGGSSSSSSYGSGRRF
notes: human hnRNPA1; Prey of the Ni-NTA pull-down; The general purification method names only Ni-NTA and SEC; also called GST-hnRNPA1; source: E. coli, purified; not shown: GST, N-terminal, kept
[1]
  binding result: binds

B2: human hnRNPA1, full-length (residues 1 to 320), fluorescently labelled (natural protein, UniProt P09651-2 1-320, looked up)
chain: MSKSESPKEPEQLRKLFIGGLSFETTDESLRSHFEQWGTLTDCVVMRDPNTKRSRGFGFVTYATVEEVDAAMNARPHKVDGRVVEPKRAVSREDSQRPGAHLTVKKIFVGGIKEDTEEHHLRDYFEQYGKIEVIEIMTDRGSGKKRGFAFVTFDDHDSVDKIVIQKYHTVNGHNCEVRKALSKQEMASASSSQRGRSGSGNFGGGRGGGFGGNDNFGRGGNFSGRGGFGGSRGGGGYGGSGDGYNGFGNDGSNFGGGGSYNDFGNYNNQSSNFGPMKGGNFGGRSSGPYGGGGQYFAKPRNQGGYGGSSSSSSYGSGRRF
modifications: RED-NHS 2nd generation dye
notes: human hnRNPA1, full-length, residues 1 to 320 (320-residue form); Labelled protein of the MST titrations (5 nM); also called full length hnRNPA1; source: E. coli Rosetta (DE3), purified (Ni-NTA, SEC)
[2]
  Kd: ~180 nM
